In the nanobody polyreactivity screen of Harvey et al. (2022):

Assay: yeast display, Sf9 membrane polyspecificity reagent, FACS + sequencing; frameworks hold sequencing errors
Procedure, shortened: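 Nanobodies came from a synthetic yeast display library in Saccharomyces cerevisiae BJ5465, induced with galactose for 36–48 hours and stained for 1 hour at 4 °C with 10% biotinylated, detergent-solubilized Sf9 membrane reagent. Cells were enriched on streptavidin microbeads and then FACS-sorted, with low and high (top ~1%) gates set on anti-HA fluorescence for expression and streptavidin fluorescence for reagent binding. Each polyreactivity label reflects the gate a clone came from. Genes were amplified by colony PCR, sequenced by MiSeq 2 × 250 and filtered by CDR length.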

Row | Sequence | polyreactivity (PSR sort gate)
1 | QVQLVESGGGLVLAGGSLRLSCAASGRIYRIYNKGWYRQAPGKERELVAAISKSGGGTYYADSVKGRFTISRDNAKNTVYLQMNSLKPEDTAVYYCTTANWDRKSRVFRQSTVGYGYWGQGTQVTVSS | high polyreactivity
2 | QVQLVESGGGLVQAGGSLRLSCAASGRIRNAMGWYRQAPGKERELVAGITWSGGRTYYADSVKGRFTISRDNAKYTVYLQMNSLKPEDTAVYYCAAATPYRYNYWGQGTQVTVSS | high polyreactivity
3 | QVQLVESGGGLVQAGGSLRLSCAATGSTFGAYAMGWYRQAPGKERELVAAITRRSGSTYYADSVKGRFTISRDNAKNTVYLQMNSLKPEDTAVYYCAARASTIMGSWGQGTQVTVSS | high polyreactivity
4 | QVQLVESGGGLVQAGGSLRLSCAASGSSLWYNTMGWYRQAPGKERELVATISGSGANTYYADSVKGRFTISRDNAKNTDYLQMNSLKPEDTAGYYCAAVYRRWGYSSEYDYWGQGTQVTVSS | high polyreactivity
5 | QDQLVESGGGLVQAGGSLRLSCAASGRTFSRYALGWYRQAPGKERELVAAISWSGGTTHYADSVKGRFTISRDNAKNTVYLLMNRLKPEDTAFYYCNKLRQIEFWGQGTQVTVSS | high polyreactivity
6 | QVQLVESWGGLVQAGGSLRLSCAASGFIFYRYAMGWYRQAPGKERELVAVISVSGGSTYADSVKGRFTISRDNAKNTVYLQMNSLKPEDTAVYYCAARRYSYYRVHGTRHDYWGQGTQVTVSS | high polyreactivity
7 | QVQLVESGGGLVQAGGSLRLSCAASGLTFWAYTMGWYRQAPGKERELVAAITSSGGRTYYADSVKGRFTISRDNAKNTVYLQMNSLKPEDTAVYYCAALGGRYRASTYGYWGQGTQVTVSS | high polyreactivity
8 | QVQLVESGGGLVQAGGSLRLSCAASGSIFLVYAMGWYRQAPGKERELVAGITSDDSTNYADSVKGRFTISRDNAKNTVYLQINRLKPEDTAVYYCAKDSLGLYIVDLGYWGQGTQVTVSS | low polyreactivity
9 | QVQLVESGGGLVQAGGSLRLSCAASGIIFDHNAMGWYRQAPGKERELVAAISTGGGNTYYADSVKGRFTISRDNAKNTVYLQMNSLKPEDTAVYYCATEPGYSYLTSYKYVYWGQGTQVTVSS | low polyreactivity
10 | QVQHVESGGGLVQAGGSLRLSCAASGSTIEDYAMGWYRQAPGKERELVAAISFSGARTYYADSVKGRFTISRDKAKNTVYLQMNSLKPEDTAVYYCNAVSGIVQRYDYWGQGTQVTVSS | high polyreactivity
11 | QVQLVESGGGVVQAGGSLRLSCAASGSILNNYAMGWYRPAPGKERELVAAISSSGGTNYADSVKGRFTISRDNAKNTVFLQMNSLKPEDTAVYYCNADVLDGGYVYWGQGTQVTVSS | low polyreactivity
12 | QVQLVESGGGLVQAGGSLRLSCAASGRIFRYYAMGWYRQAPGKERELVAAITKNGGSTYYADSVKRRFTISRDNAKNTVYLQMNSLKPEDTAVYYCAAARLGNYDYWGQGTQVTVSS | high polyreactivity
13 | QVQLVESGGGLVQAGGSLRLSCAASGIFDYYVMGWYRQAPGKERELVAAISKSDGSTYYADSVKGRFTISRDNAKNTVYLQMNSLKQEDTAVYYCNAKLYYNRMDYWGQGTQVTVSS | low polyreactivity
14 | QVQLVESGGGLLQAGGSLRLSCAASGRIFRGYAMGWYRQAPGKESELVAGITSGGSTKYADSVKGRFTISRDNAKNTVYLQMNSLKPEDTAVYYCAKGYLPYSYYARPYIRYYWGQGTQVTVSS | high polyreactivity
15 | QVQLVESGGGLVQAGGSLRLSCAASGRIFNIYAMGWYRQAPGKERELVAAISVSGTRTYYADSVKGRFTISRDNAKNTVYLQMNSLKPEDTAVYYCAADSYGGDWTEHMYYWGQGTQVTVSS | low polyreactivity
16 | QLQLVESGGGLVQAGGSLRLSCAASGRTLSRYAMGWYRQAPGNERELVAVISSRGGSTYYADSVKGRFTISRDNAKNTVYLRMNSLKPEDTAVFYCAAVRNRHGYDYWGQGTQVTVSS | high polyreactivity
17 | QVQLVESGGGLVQAGGSLRLSCAASGSTFAPNAMGWYRQAPGKEREFVATISASGGYTYYADSVKGRFTISRDNAKNTVYLQMNSLKPEDTAVYYCYAVWRVGRQLSQAKIPYDYWGQGTQVTVSS | low polyreactivity
18 | QVQLVESGGGLVQAGGSLRLSCAASGFTFYRNAMGWYRQAPGKERELVAAITWSGTSTYYADSVKGRFTISRDNAKNTVYLQMNSPKPEDTAVYYCNTVGYRGRSNSRFYYWGQGTQVTVSS | high polyreactivity
19 | QVQLVESGGGLVQAGRSLRLSCAASGSNFLTNTMGWYRQAPGKERELVAAITLRGGRTYYADSVKGRFTISRDNAKNTVYLHMNSLKPEDTAVYYCNARNYYYPSDRDYWGQGTQVTGSS | low polyreactivity
20 | QVQLVESGGGLVQAGGSLRLICAASGFIYHNAMGWYRQATGTERELVARITWSGGSTSYADSVKGRFTISRDNAKNTVYLQKNSLKPEDTAVYYCAARGVVYRYGASRGYWGQGTQVTVSS | high polyreactivity
21 | HLQLVESGGVLVQAGGSLRLSCASSGSTFRSNVMGWYRQAPGKAREFVAAITSSSATTYYADSVKGRFTISRDNAKNTVYLLINSLKPEDTAVYYCAAGGRKAGPAGGQYYYWGQGTQVTVSS | low polyreactivity
22 | QVQLGESGGGLVQAGGSLRLICAASGFIFTTYVMGWYRQAPGKERELVAVISRSGGRTYYADSVKGRFTISRDNEKYTVYLLMNSLKPEDTAVYYCNVDIPVLSHIEYYYWGQGTQVTVSS | low polyreactivity

Row | Sequence | polyreactivity (PSR sort gate)
23 | QVQLVESGGGLVQAGGSLRLSCAASGYTFSWYAMGWYRQAPGKERELVAGIDTSGGSTYYADSVKGRFTISRDNAKNTVYLQMNSLKPEDTAVYYCAAGLLWYSWGFWYYEYGYWGQGTQVTVSS | low polyreactivity
24 | QVQLVESGGGLVQAGGSLRLSCPASGRIFTSYAMGWYRQEPGKERELVAAINRGGSTYYADSVKGRFTISRDNAKNTVYLQMNSLKPEDTAVYYCNASQPYNPEFDYWRQGTQVTVSS | low polyreactivity
25 | QVQLVDSGGGLVQAGGSLRLSCADSGRTFWGYGKGWYRQATGKERELVATISSGGSTYYADSVKGRFTISRDNAKNTVYLQMNSLKPEDTAVYYCAARPPPTYWRYQSDYWGQGTQVTVSS | high polyreactivity
26 | QVQLVESGGGLVQAGGSLRLSCAASGLTFGFNAMGWYRQAPGKERELVAAISSRGGSTYYADSVKGRFTISRDNAKNTVYLQMNSLKPEDTAVYYCNARSVYDGFWYNYWGQGTQVTVSS | low polyreactivity
27 | QVQLVESGGGLDHAGGSLRLSCADSGRIFNYNAMGWYIQAPGKESELVAAISWDGGSTYYADSVKGRFTISRDNAKNTVYLQINSLKPEDSAVYYCAAQYIWSSYRYYYWGQGTQVTVSS | high polyreactivity
28 | QVQLVESGGGLVQAGGSLRLSCAASGRIFGVYAMGRYRQAPGKERELVAGINGGDSTYYADSVKGRFTISRDNAKNTVYLQMNSLKAEDTAVYYCAAEADESGSNYDYWGQGTQVTVSS | low polyreactivity
29 | QVQLVESGGGLVQAGGSLRLSCAASGRIFPHYSMGWYRQAPGKERELVAAISWSGSSTYYADSVKGRFTISRDNAKNTVYLQMNSLKPEDTAVYYCNAVRRGIGYDYGYWGQGTQVTVSS | high polyreactivity
30 | QVQLVESGGGLVQAGGSLRLSCAASGSIFYYAMGWYRQAPGKERELVATISASGGSTYYADSVKGRFTISRDNEKNTVYLQMNSLKAEDTAVYYCAVRYKSWYGFNYWGQGTQVTVSS | high polyreactivity
31 | QVQLVESGGGLVQAGGSLRLSCAASGSIFDVYVMGWYRQAPGKERELVAAITSTGSTNYADSVKGRFTISRDNAKNTVYLQMNSLKPEDTAVYYCATDGVYKHIQVLYDYWGQGTQVTVSS | low polyreactivity
32 | QVQLVESGGGLVQAGGSLRLSCAASGSTFYDYVMGWYRQAPGKERELVAVISSSGSTNYADSVKGRITISRDNAKNTVYLQMNSLKTEDTAVYYCAAEYTFDWLEFDYWGQGTQVTVSS | low polyreactivity
33 | QVQLVESGGGLVQAGGSLRLSCAASGSILYYAMGWYRQAPGKERELVATITRGGSTYYADSVKGRFTISRDNAKNTVYLQMNSLKPDDTAVYYCAARRAVRVGYYWHDISSYDYWGQGTQVTVPS | low polyreactivity
34 | QVQLVESGGGLVQAGGSLRLSCAASGRIFTYYTMGWYRQAPGKERELVAANDSGSSTYYADSVKGRFTISRDNAKNTVYLQMNSLKPEDTAVYYCAADGVRSLVRRGYWFDYWGQGTQVTVSS | low polyreactivity
35 | QVQLVESGGGLVQAGGSLRLSCAASGRIFYNYAMGWYRQAPGKERELVAAISGSGGSTYYADSVKGRFTISRDNAKKTVYLQMNSLKPEDTAVYYCSTSGPQYYSRNFDYWGQGTQVTVSS | low polyreactivity
36 | QVQLVESGGGLVQAGGSLRLSCAASGSIFRRYAMGWYRQAPGKERELVAAISFSGYSTYYADSVKGRFTISRDNAKNTVYLQMNSLKPEDTAVYYCAARSQRHKLSRDYNYWGQGTQVTVSS | high polyreactivity
37 | QVQLVQSGGGLVQAGGSLRLSCAASGLIFTTNPMGWYRQAPGKERQFVAAISPSGGSTYYADSVKGRFTISRDNAKNTVYLQMNCLKPEDTAVYSCGARYSPVWHKYYYWGQGTQVTVSS | high polyreactivity
38 | QVQLVESGGGLVQAGGSLRLSCAASGSTFIGYTMGWYRQAPGKERELVAAISTSGARTYYADSVKGRFTISRDNAKNTVYLQMNSLKPEDTAVYYCAARAIYKSKYDYWGQGTQVTVSS | high polyreactivity
39 | QVQLVESGGGLVQAGGSLRLSCAASGSTFLYYAMGWYRQAPGKERELVAVISWSGVSTYYADSVKGRFTISRYNAKNTVYLQMNSLKPEDTAVYYCNTGNHYIRTYGYWGLGTQVTVSS | low polyreactivity
40 | QVQLVESGGGLVQAGGSLRLSSAASGFTFRIYAMGWYRQAPGKERELVATISWSGTSTYYADSVKGRFTISRDNAKNTVYLQMNSLKPEDTAVYYCAKDGVSFYWLNKYYYWGQGTQVTVSS | low polyreactivity
41 | RVQLQESGGGLVQAGGSLRLSCAASGTIFNRGDMGWYRQAPGKEREFVATIDTGSNTYYADSEKGPFTISRDNAKNAVYLQMNCLKPGATAVYYCVVDYQLSGRLRYWGQGTQVTLSS | low polyreactivity
42 | QVQLGESGGGLVQAGGSLRLSCAASGSTFAKYAMGWYRQAPGKERELVAAISSSGTCTYYADSVKGRFTISRDNAKNTVYLQMNSRKPEDTAVYYCAASYRNRYIAFYYWGQGTQVTVSS | low polyreactivity
43 | QVQLVESGGCLVHAGGSLRLSCAASGRIFYTYAMGWYRQSPGNESELVAAISSRTVSTKYADSVKGRFTISRDNAKYTVYLQMNSLKPEDTAVYYCNVYSLRYGYDYCGQGTQVTVSS | high polyreactivity
